Measured values from PMC9352680, “A comprehensive thermodynamic model for RNA binding by the Saccharomyces cerevisiae Pumilio protein PUF4”.
Positions count from the first letter of the chain named. Names and notes keep the numbering of the source.

T1: PUF4 RNA-binding domain (Saccharomyces cerevisiae, UniProt P25339 537-888)
T1 sequence: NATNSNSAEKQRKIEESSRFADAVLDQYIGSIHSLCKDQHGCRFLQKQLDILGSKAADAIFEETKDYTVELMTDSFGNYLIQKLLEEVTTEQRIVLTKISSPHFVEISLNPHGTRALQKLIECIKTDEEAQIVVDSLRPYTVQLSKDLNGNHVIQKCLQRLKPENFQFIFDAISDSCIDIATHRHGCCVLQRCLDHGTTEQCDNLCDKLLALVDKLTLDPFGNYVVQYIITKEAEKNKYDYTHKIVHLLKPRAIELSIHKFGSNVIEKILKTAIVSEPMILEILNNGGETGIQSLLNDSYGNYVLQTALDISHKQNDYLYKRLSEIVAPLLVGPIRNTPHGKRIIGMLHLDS

B1: Id_ii_S2_P4E.4_K4.3_C4.2_[C-2G]_[T-1C]_H4.3_A4.1_F4.1_T4.2 (ssRNA)
RNA: UUUGAUUAAUAUGAUAUCGUUCUUUCUGCACACUAUUAGUUUCUUUCUCGAUAUCAUAUUAAUCUUU
B2: Id_ii_S2_P4E.4_K4.3_C4.2_[C-2A]_[T-1A]_H4.3_A4.1_F4.1_T4.2_[G10T]_[T11C] (ssRNA)
RNA: B1 RNA with G28A, C29A, G39U, U40C
B3: Id_ii_S2_P4E.4_K4.3_C4.2_[C-2A]_H4.3_A4.1_F4.1_T4.2_[G10C]_[T11A] (ssRNA)
RNA: B1 RNA with G28A, C29U, G39C, U40A
B4: Id_ii_S2_P4E.4_K4.3_C4.2_[C-2T]_[T-1C]_H4.3_A4.1_F4.1_T4.2_[G10C]_[T11C] (ssRNA)
RNA: B1 RNA with G28U, G39C, U40C
B5: Id_ii_S2_P4E.4_K4.3_C4.2_[C-2T]_[T-1A]_H4.3_A4.1_F4.1_T4.2_[G10T]_[T11A] (ssRNA)
RNA: B1 RNA with G28U, C29A, G39U, U40A
B6: Id_ii_S2_P4E.4_K4.3_C4.2_[C-2A]_[T-1C]_H4.3_A4.1_F4.1_T4.2_[G10A]_[T11A] (ssRNA)
RNA: B1 RNA with G28A, G39A, U40A
B7: Id_ii_S2_P4E.4_K4.3_C4.2_[T-1G]_H4.3_A4.1_F4.1_T4.2_[G10A]_[T11C] (ssRNA)
RNA: B1 RNA with G28C, C29G, G39A, U40C
B8: Id_ii_S2_P4E.4_K4.3_C4.2_[C-2T]_H4.3_A4.1_F4.1_T4.2_[G10C]_[T11C] (ssRNA)
RNA: B1 RNA with G28U, C29U, G39C, U40C
B9: Id_ii_S2_P4E.4_K4.3_C4.2_[C-2A]_H4.3_A4.1_F4.1_T4.2_[G10A]_[T11C] (ssRNA)
RNA: B1 RNA with G28A, C29U, G39A, U40C
B10: Id_ii_S2_P4E.4_K4.3_C4.2_[C-2T]_H4.3_A4.1_F4.1_T4.2_[G10A]_[T11C] (ssRNA)
RNA: B1 RNA with G28U, C29U, G39A, U40C
B11: Id_ii_S2_P4E.4_K4.3_C4.2_[C-2T]_[T-1A]_H4.3_A4.1_F4.1_T4.2_[G10T] (ssRNA)
RNA: B1 RNA with G28U, C29A, G39U
B12: Id_ii_S2_P4E.4_K4.3_C4.2_[C-2G]_H4.3_A4.1_F4.1_T4.2_[G10A]_[T11C] (ssRNA)
RNA: B1 RNA with C29U, G39A, U40C
B13: Id_ii_S2_P4E.4_K4.3_C4.2_[C-2G]_H4.3_A4.1_F4.1_T4.2_[G10T]_[T11A] (ssRNA)
RNA: B1 RNA with C29U, G39U, U40A
B14: Id_ii_S2_P4E.4_K4.3_C4.2_[T-1C]_H4.3_A4.1_F4.1_T4.2_[G10C]_[T11C] (ssRNA)
RNA: B1 RNA with G28C, G39C, U40C
B15: Id_ii_S2_P4E.4_K4.3_C4.2_[C-2G]_H4.3_A4.1_F4.1_T4.2_[G10C]_[T11C] (ssRNA)
RNA: B1 RNA with C29U, G39C, U40C
B16: Id_ii_S2_P4E.4_K4.3_C4.2_[C-2A]_[T-1A]_H4.3_A4.1_F4.1_T4.2_[G10C] (ssRNA)
RNA: B1 RNA with G28A, C29A, G39C
B17: Id_ii_S2_P4E.4_K4.3_C4.2_[C-2T]_[T-1C]_H4.3_A4.1_F4.1_T4.2_[G10C] (ssRNA)
RNA: B1 RNA with G28U, G39C
B18: Id_ii_S2_P4E.4_K4.3_C4.2_[C-2T]_[T-1A]_H4.3_A4.1_F4.1_T4.2_[G10C]_[T11A] (ssRNA)
RNA: B1 RNA with G28U, C29A, G39C, U40A
B19: Id_ii_S2_P4E.4_K4.3_C4.2_[C-2T]_H4.3_A4.1_F4.1_T4.2 (ssRNA)
RNA: B1 RNA with G28U, C29U
B20: Id_ii_S2_P4E.4_K4.3_C4.2_[C-2A]_H4.3_A4.1_F4.1_T4.2_[G10C] (ssRNA)
RNA: B1 RNA with G28A, C29U, G39C
B21: Id_ii_S2_P4E.4_K4.3_C4.2_[C-2G]_H4.3_A4.1_F4.1_T4.2_[G10A] (ssRNA)
RNA: B1 RNA with C29U, G39A
B22: Id_ii_S2_P4E.4_K4.3_C4.2_[C-2T]_H4.3_A4.1_F4.1_T4.2_[G10C]_[T11A] (ssRNA)
RNA: B1 RNA with G28U, C29U, G39C, U40A
B23: Id_ii_S2_P4E.4_K4.3_C4.2_[C-2A]_[T-1A]_H4.3_A4.1_F4.1_T4.2_[G10C]_[T11C] (ssRNA)
RNA: B1 RNA with G28A, C29A, G39C, U40C
B24: Id_ii_S2_P4E.4_K4.3_C4.2_[C-2T]_[T-1A]_H4.3_A4.1_F4.1_T4.2_[G10A]_[T11A] (ssRNA)
RNA: B1 RNA with G28U, C29A, G39A, U40A
B25: Id_ii_S2_P4E.4_K4.3_C4.2_[C-2A]_[T-1C]_H4.3_A4.1_F4.1_T4.2_[G10C] (ssRNA)
RNA: B1 RNA with G28A, G39C
B26: Id_ii_S2_P4E.4_K4.3_C4.2_[T-1G]_H4.3_A4.1_F4.1_T4.2_[G10T] (ssRNA)
RNA: B1 RNA with G28C, C29G, G39U
B27: Id_ii_S2_P4E.4_K4.3_C4.2_[C-2G]_H4.3_A4.1_F4.1_T4.2_[G10A]_[T11A] (ssRNA)
RNA: B1 RNA with C29U, G39A, U40A
B28: Id_ii_S2_P4E.4_K4.3_C4.2_[C-2T]_[T-1C]_H4.3_A4.1_F4.1_T4.2_[G10T]_[T11A] (ssRNA)
RNA: B1 RNA with G28U, G39U, U40A
B29: Id_ii_S2_P4E.4_K4.3_C4.2_[C-2A]_[T-1C]_H4.3_A4.1_F4.1_T4.2_[G10T]_[T11C] (ssRNA)
RNA: B1 RNA with G28A, G39U, U40C
B30: Id_ii_S2_P4E.4_K4.3_C4.2_[T-1G]_H4.3_A4.1_F4.1_T4.2_[G10C] (ssRNA)
RNA: B1 RNA with G28C, C29G, G39C
B31: Id_ii_S2_P4E.4_K4.3_C4.2_[T-1C]_H4.3_A4.1_F4.1_T4.2_[G10A]_[T11A] (ssRNA)
RNA: B1 RNA with G28C, G39A, U40A
B32: Id_ii_S2_P4E.4_K4.3_C4.2_[T-1G]_H4.3_A4.1_F4.1_T4.2_[G10A] (ssRNA)
RNA: B1 RNA with G28C, C29G, G39A
B33: Id_ii_S2_P4E.4_K4.3_C4.2_[C-2T]_H4.3_A4.1_F4.1_T4.2_[G10A] (ssRNA)
RNA: B1 RNA with G28U, C29U, G39A
B34: Id_ii_S2_P4E.4_K4.3_C4.2_[C-2A]_H4.3_A4.1_F4.1_T4.2_[G10T] (ssRNA)
RNA: B1 RNA with G28A, C29U, G39U
B35: Id_ii_S2_P4E.4_K4.3_C4.2_[T-1G]_H4.3_A4.1_F4.1_T4.2_[G10T]_[T11C] (ssRNA)
RNA: B1 RNA with G28C, C29G, G39U, U40C
B36: Id_ii_S2_P4E.4_K4.3_C4.2_[T-1G]_H4.3_A4.1_F4.1_T4.2_[G10A]_[T11A] (ssRNA)
RNA: B1 RNA with G28C, C29G, G39A, U40A
B37: Id_ii_S2_P4E.4_K4.3_C4.2_[C-2A]_H4.3_A4.1_F4.1_T4.2_[G10T]_[T11C] (ssRNA)
RNA: B1 RNA with G28A, C29U, G39U, U40C
B38: Id_ii_S2_P4E.4_K4.3_C4.2_[C-2A]_[T-1A]_H4.3_A4.1_F4.1_T4.2_[G10A] (ssRNA)
RNA: B1 RNA with G28A, C29A, G39A
B39: Id_ii_S2_P4E.4_K4.3_C4.2_[T-1C]_H4.3_A4.1_F4.1_T4.2_[G10T]_[T11A] (ssRNA)
RNA: B1 RNA with G28C, G39U, U40A
B40: Id_ii_S2_P4E.4_K4.3_C4.2_[T-1C]_H4.3_A4.1_F4.1_T4.2_[G10T] (ssRNA)
RNA: B1 RNA with G28C, G39U
B41: Id_ii_S2_P4E.4_K4.3_C4.2_[C-2A]_[T-1C]_H4.3_A4.1_F4.1_T4.2_[G10T]_[T11A] (ssRNA)
RNA: B1 RNA with G28A, G39U, U40A
B42: Id_ii_S2_P4E.4_K4.3_C4.2_[C-2T]_[T-1C]_H4.3_A4.1_F4.1_T4.2_[G10T] (ssRNA)
RNA: B1 RNA with G28U, G39U
B43: Id_ii_S2_P4E.4_K4.3_C4.2_[C-2T]_H4.3_A4.1_F4.1_T4.2_[G10A]_[T11A] (ssRNA)
RNA: B1 RNA with G28U, C29U, G39A, U40A
B44: Id_ii_S2_P4E.4_K4.3_C4.2_[C-2A]_H4.3_A4.1_F4.1_T4.2_[G10C]_[T11G] (ssRNA)
RNA: B1 RNA with G28A, C29U, G39C, U40G
B45: Id_ii_S2_P4E.4_K4.3_C4.2_[C-2T]_[T-1C]_H4.3_A4.1_F4.1_T4.2_[G10A]_[T11A] (ssRNA)
RNA: B1 RNA with G28U, G39A, U40A
B46: Id_ii_S2_P4E.4_K4.3_C4.2_[C-2A]_H4.3_A4.1_F4.1_T4.2_[G10C]_[T11C] (ssRNA)
RNA: B1 RNA with G28A, C29U, G39C, U40C
B47: Id_ii_S2_P4E.4_K4.3_C4.2_[C-2T]_[T-1A]_H4.3_A4.1_F4.1_T4.2 (ssRNA)
RNA: B1 RNA with G28U, C29A

What follows are binders tested against T1, PUF4 RNA-binding domain (assay: Mg; RNA-MaP; 20 mM Na-HEPES pH 7.4, 30 mM KOAc, 0.75 mM MgCl2, 0.1% Tween-20, 5% glycerol, 0.1 mg/mL BSA, 2 mM DTT; 25 C; 0.0125-409.6 nM protein). Details: tags: N-His6-TEV cleaved; C-SNAP kept, Cy3B-labelled; label: tethered on chip by stalled RNA polymerase.

| Binder | Kd |
| --- | --- |
| UCUCUUUGCAUUAUUAUCUCUU (ssRNA) [Ia_S1_P5E.1_K5.1_C5.1_H5.1_[T3C]_A5.1_F5.1_T5.1] | 1250 nM |
| B1 | 448 nM |
| B2 | > 2300 nM |
| B3 | 11.4 nM |
| B4 | > 2300 nM |
| B5 | 882 nM |
| B6 | > 2300 nM |
| B7 | > 2300 nM |
| B8 | 306 nM |
| B9 | 9.57 nM |
| B10 | 305 nM |
| B11 | 2160 nM |
| B12 | 0.5 nM |
| B13 | 0.496 nM |
| B14 | > 2300 nM |
| B15 | 0.865 nM |
| B16 | > 2300 nM |
| B17 | > 2300 nM |
| B18 | 2190 nM |
| B19 | 2020 nM |
| B20 | 9.11 nM |
| B21 | 0.412 nM |
| B22 | 198 nM |
| B23 | > 2300 nM |
| B24 | > 2300 nM |
| B25 | > 2300 nM |
| B26 | > 2300 nM |

| Binder | Kd |
| --- | --- |
| B27 | 0.354 nM |
| B28 | 479 nM |
| B29 | > 2300 nM |
| B30 | > 2300 nM |
| B31 | > 2300 nM |
| B32 | > 2300 nM |
| B33 | 445 nM |
| B34 | 12.3 nM |
| B35 | > 2300 nM |
| B36 | > 2300 nM |
| B37 | 10.3 nM |
| B38 | > 2300 nM |
| B39 | 594 nM |
| B40 | 2050 nM |
| B41 | 592 nM |
| B42 | 1530 nM |
| B43 | 806 nM |
| B44 | 47.6 nM |
| B45 | > 2300 nM |
| B46 | 10.8 nM |
| B47 | > 2300 nM |
| UCUCUUUGUACUAGUAUCUCUU (ssRNA) [Ib_S1_P5E.1_K5.1_C5.1_H5.1_A5.1_[T5C]_F5.1_[T8G]_T5.1] | 23.5 nM |
| UCUCUUUGUACUACUAUCUCUU (ssRNA) [Ib_S1_P5E.1_K5.1_C5.1_H5.1_A5.1_[T5C]_F5.1_[T8C]_T5.1] | 10.9 nM |
| UCUCUUUGUAAUACUAUCUCUU (ssRNA) [Ib_S1_P5E.1_K5.1_C5.1_H5.1_A5.1_[T5A]_F5.1_[T8C]_T5.1] | 10.3 nM |
| UCUCUUUGUUUUAUUUUCUCUU (ssRNA) [Ib_S1_P5E.1_K5.1_C5.1_H5.1_[A4T]_A5.1_F5.1_[A10T]_T5.1] | 864 nM |
| UCUCUUUGUAAUAGUAUCUCUU (ssRNA) [Ib_S1_P5E.1_K5.1_C5.1_H5.1_A5.1_[T5A]_F5.1_[T8G]_T5.1] | 21.4 nM |
